Data: PMC4383598, “Role of Cysteine Residues in the Structure, Stability, and Alkane Producing Activity of Cyanobacterial Aldehyde Deformylating Oxygenase” (PLoS ONE, 2015)
Where a chain is given by its changes, count along the chain named. Numbers in names are those of the source.

B1: Aldehyde deformylating oxygenase from Nostoc punctiforme PCC 73102, C71S mutant (enzyme, UniProt B2J1M1 1-232, looked up)
chain: MQQLTDQSKELDFKSETYKDAYSRINAIVIEGEQEAHENYITLAQLLPESHDELIRLSKMESRHKKGFEASGRNLAVTPDLQFAKEFFSGLHQNFQTAAAEGKVVTCLLIQSLIIECFAIAAYNIYIPVADDFARKITEGVVKEEYSHLNFGEVWLKEHFAESKAELELANRQNLPIVWKMLNQVEGDAHTMAMEKDALVEDFMIQYGEALSNIGFSTRDIMRLSAYGLIGA
notes: Aldehyde deformylating oxygenase of Nostoc punctiforme PCC 73102; codon-optimised synthetic gene; Same construct as m1 with the mutation; source: E. coli BL21(DE3)pLysS (pET-15b-AD variant), purified (Ni-agarose, dialysis)
B2: Aldehyde deformylating oxygenase from Nostoc punctiforme PCC 73102, C71A mutant (enzyme, UniProt B2J1M1 1-232, looked up)
chain: B1 chain with S71A
notes: as for B1

Biological target: the molecule itself
Experiment: SEC; Superdex 200pg (124 mL), 500 uL of protein at 2.5 mg/mL, 0.5 mL/min, 10 mM sodium phosphate pH 7.2, 150 mM NaCl; fraction of dimer against monomer

Protein	stoichiometry N
B1	2
B2	2
